From publication PMC2192027 come the findings set out here.

Test [1] has as its target recombinant full-length luminal segment of CLIMP-63 (amino acids 127–601) (UniProt Q07065). As to the kind of experiment: AUC.
Test [2] deals with CLIMP-63 luminal fragment 268–459 (UniProt Q07065). As to the kind of experiment: AUC.

“recombinant full-length luminal segment of CLIMP-63 (amino acids 127–601) (from UniProt Q07065 127-601) (domain or fragment)”: in test [1], the percent sedimenting at 26 S (1.5 M urea) is 80%, the percent sedimenting at 26 S (2 M urea) stood at 50% and the percent sedimenting at 26 S (2.5 M urea) amounted to 20%.
By stoichiometry N is commonly meant the number of molecules, sites or subunits per partner or assembly. With “CLIMP-63 luminal fragment 268–459 (from UniProt Q07065 268-459) (domain or fragment)”, the stoichiometry N in test [2] came to 2.
